B1: peptide HD2 (from tick evasin EVA4) / CCL11 (biotinylated, synthetic) (parent complex)
chain 1: EEDDYTAYAPLTCYFT
chain 2: not shown

Variants of: B1

| Variant | enrichment |
| --- | --- |
| chain 1 E1W | -3.15 log2 (difference from the parental peptide) |
| chain 1 E1M | -0.0601 log2 (difference from the parental peptide) |
| chain 1 E1D | 2.04 log2 (difference from the parental peptide) |
| chain 1 E1N | -0.236 log2 (difference from the parental peptide) |
| chain 1 E1Y | -1.08 log2 (difference from the parental peptide) |
| chain 1 E1Q | -0.591 log2 (difference from the parental peptide) |
| chain 1 E1I | -0.709 log2 (difference from the parental peptide) |
| chain 1 E1L | -1.42 log2 (difference from the parental peptide) |
| chain 1 C13T | -6.48 log2 (difference from the parental peptide) |
| chain 1 C13P | -6.72 log2 (difference from the parental peptide) |
| chain 1 C13E | -8.19 log2 (difference from the parental peptide) |
| chain 1 C13F | -7.62 log2 (difference from the parental peptide) |
| chain 1 C13N | -8.78 log2 (difference from the parental peptide) |
| chain 1 C13W | -7.9 log2 (difference from the parental peptide) |
| chain 1 C13I | -6.17 log2 (difference from the parental peptide) |
| chain 1 C13L | -6.8 log2 (difference from the parental peptide) |
| chain 1 C13V | -5.2 log2 (difference from the parental peptide) |
| chain 1 A9N | -5.15 log2 (difference from the parental peptide) |
| chain 1 A9H | -4.7 log2 (difference from the parental peptide) |
| chain 1 A9F | -8.22 log2 (difference from the parental peptide) |
| chain 1 A9Q | -0.313 log2 (difference from the parental peptide) |
| chain 1 A9P | -8.38 log2 (difference from the parental peptide) |
| chain 1 A9I | -10.6 log2 (difference from the parental peptide) |
| chain 1 A9T | -3.11 log2 (difference from the parental peptide) |
| chain 1 A9W | -5.62 log2 (difference from the parental peptide) |
| chain 1 Y14K | -7.74 log2 (difference from the parental peptide) |
| chain 1 Y14C | -5.72 log2 (difference from the parental peptide) |

| Variant | enrichment |
| --- | --- |
| chain 1 Y14G | -8.75 log2 (difference from the parental peptide) |
| chain 1 Y14M | -2.62 log2 (difference from the parental peptide) |
| chain 1 Y14W | -0.519 log2 (difference from the parental peptide) |
| chain 1 Y14H | -2.21 log2 (difference from the parental peptide) |
| chain 1 Y14A | -6.29 log2 (difference from the parental peptide) |
| chain 1 Y14N | -4.02 log2 (difference from the parental peptide) |
| chain 1 Y14L | -3.46 log2 (difference from the parental peptide) |
| chain 1 Y14S | -5.39 log2 (difference from the parental peptide) |
| chain 1 Y8S | -6.51 log2 (difference from the parental peptide) |
| chain 1 Y8I | -9.96 log2 (difference from the parental peptide) |
| chain 1 Y8C | -9.26 log2 (difference from the parental peptide) |
| chain 1 P10W | -7.42 log2 (difference from the parental peptide) |
| chain 1 P10E | -7.48 log2 (difference from the parental peptide) |
| chain 1 F15R | -3.27 log2 (difference from the parental peptide) |
| chain 1 F15D | -0.00314 log2 (difference from the parental peptide) |
| chain 1 F15A | 0.737 log2 (difference from the parental peptide) |
| chain 1 F15M | 0.54 log2 (difference from the parental peptide) |
| chain 1 F15E | 0.713 log2 (difference from the parental peptide) |
| chain 1 F15T | 1.13 log2 (difference from the parental peptide) |
| chain 1 F15L | 0.0745 log2 (difference from the parental peptide) |
| chain 1 F15Q | -0.31 log2 (difference from the parental peptide) |
| chain 1 T6S | 2.88 log2 (difference from the parental peptide) |
| chain 1 T6G | 2.76 log2 (difference from the parental peptide) |
| chain 1 T6V | -3.9 log2 (difference from the parental peptide) |
| chain 1 T6R | -0.866 log2 (difference from the parental peptide) |
| chain 1 T6W | -0.511 log2 (difference from the parental peptide) |
| chain 1 T6H | -0.677 log2 (difference from the parental peptide) |

| Variant | enrichment |
| --- | --- |
| chain 1 T6Y | -1.69 log2 (difference from the parental peptide) |
| chain 1 T6P | -4.98 log2 (difference from the parental peptide) |
| chain 1 E2M | -1.91 log2 (difference from the parental peptide) |
| chain 1 E2K | -3.4 log2 (difference from the parental peptide) |
| chain 1 E2N | -2.1 log2 (difference from the parental peptide) |
| chain 1 E2Q | -1.08 log2 (difference from the parental peptide) |
| chain 1 E2S | -1.71 log2 (difference from the parental peptide) |
| chain 1 D4V | -4.79 log2 (difference from the parental peptide) |
| chain 1 T16P | 1.77 log2 (difference from the parental peptide) |
| chain 1 T16G | 1.39 log2 (difference from the parental peptide) |
| chain 1 T16I | 0.443 log2 (difference from the parental peptide) |
| chain 1 T16E | 2.21 log2 (difference from the parental peptide) |
| chain 1 T16N | 0.695 log2 (difference from the parental peptide) |
| chain 1 T16S | 1.18 log2 (difference from the parental peptide) |
| chain 1 D3V | -3.65 log2 (difference from the parental peptide) |
| chain 1 D3Q | -4.56 log2 (difference from the parental peptide) |
| chain 1 D3A | -2.56 log2 (difference from the parental peptide) |
| chain 1 D3K | -4.93 log2 (difference from the parental peptide) |
| chain 1 D3T | -2 log2 (difference from the parental peptide) |
| chain 1 D3F | -1.93 log2 (difference from the parental peptide) |
| chain 1 D3Y | -0.781 log2 (difference from the parental peptide) |
| chain 1 D3G | -2.94 log2 (difference from the parental peptide) |
| chain 1 D3R | -4.57 log2 (difference from the parental peptide) |
| chain 1 Y5C | -5.28 log2 (difference from the parental peptide) |
| chain 1 Y5L | -2.37 log2 (difference from the parental peptide) |
| chain 1 Y5E | 0.188 log2 (difference from the parental peptide) |
| chain 1 Y5I | -4.75 log2 (difference from the parental peptide) |

| Variant | enrichment |
| --- | --- |
| chain 1 Y5P | -7.31 log2 (difference from the parental peptide) |
| chain 1 L11K | -0.948 log2 (difference from the parental peptide) |
| chain 1 L11E | -2.74 log2 (difference from the parental peptide) |
| chain 1 L11A | -0.668 log2 (difference from the parental peptide) |
| chain 1 L11F | -0.71 log2 (difference from the parental peptide) |
| chain 1 L11G | -5.15 log2 (difference from the parental peptide) |
| chain 1 L11W | -0.874 log2 (difference from the parental peptide) |
| chain 1 T12I | -1.03 log2 (difference from the parental peptide) |
| chain 1 T12S | -1.64 log2 (difference from the parental peptide) |
| chain 1 T12C | -6.12 log2 (difference from the parental peptide) |
| chain 1 T12V | -0.494 log2 (difference from the parental peptide) |
| chain 1 T12E | -1.39 log2 (difference from the parental peptide) |
| chain 1 T12R | -3.61 log2 (difference from the parental peptide) |
| chain 1 T12L | -0.794 log2 (difference from the parental peptide) |
| chain 1 T12N | -0.967 log2 (difference from the parental peptide) |
| chain 1 T12D | -2.24 log2 (difference from the parental peptide) |
| chain 1 T12G | -9.29 log2 (difference from the parental peptide) |
| chain 1 T12W | -2.96 log2 (difference from the parental peptide) |
| chain 1 A7H | -0.338 log2 (difference from the parental peptide) |
| chain 1 A7D | 2.81 log2 (difference from the parental peptide) |
| chain 1 A7Q | 2.3 log2 (difference from the parental peptide) |
| chain 1 A7I | -0.213 log2 (difference from the parental peptide) |
| chain 1 A7L | 0.532 log2 (difference from the parental peptide) |
| chain 1 A7K | 1.27 log2 (difference from the parental peptide) |
